The text below walks through data of US20020058619A1.

The target of test [1] is Recombinant human Flt-1/Fc chimera (R&D Systems) (human) (UniProt P17948). Description: fluorescence plate assay; control peptide at 10 µM on immobilized Flt-1/Fc.
Test [2] has the same target. The experiment in a line: fluorescence plate assay; control peptide at 100 µM on immobilized Flt-1/Fc.
Test [3] has the same target. The experiment in a line: fluorescence plate assay; control peptide at 0.1 µM on immobilized Flt-1/Fc.
For test [4] the target is unchanged. The experiment in a line: fluorescence plate assay; control peptide at 1 µM on immobilized Flt-1/Fc.
Test [5] shares this target. Description: fluorescence plate assay; control peptide at 0 µM on immobilized Flt-1/Fc.

Sequence of Recombinant human Flt-1/Fc chimera (R&D Systems) (human) (P17948 other isoform, or with tags, fused parts or gaps mutant limits assumed): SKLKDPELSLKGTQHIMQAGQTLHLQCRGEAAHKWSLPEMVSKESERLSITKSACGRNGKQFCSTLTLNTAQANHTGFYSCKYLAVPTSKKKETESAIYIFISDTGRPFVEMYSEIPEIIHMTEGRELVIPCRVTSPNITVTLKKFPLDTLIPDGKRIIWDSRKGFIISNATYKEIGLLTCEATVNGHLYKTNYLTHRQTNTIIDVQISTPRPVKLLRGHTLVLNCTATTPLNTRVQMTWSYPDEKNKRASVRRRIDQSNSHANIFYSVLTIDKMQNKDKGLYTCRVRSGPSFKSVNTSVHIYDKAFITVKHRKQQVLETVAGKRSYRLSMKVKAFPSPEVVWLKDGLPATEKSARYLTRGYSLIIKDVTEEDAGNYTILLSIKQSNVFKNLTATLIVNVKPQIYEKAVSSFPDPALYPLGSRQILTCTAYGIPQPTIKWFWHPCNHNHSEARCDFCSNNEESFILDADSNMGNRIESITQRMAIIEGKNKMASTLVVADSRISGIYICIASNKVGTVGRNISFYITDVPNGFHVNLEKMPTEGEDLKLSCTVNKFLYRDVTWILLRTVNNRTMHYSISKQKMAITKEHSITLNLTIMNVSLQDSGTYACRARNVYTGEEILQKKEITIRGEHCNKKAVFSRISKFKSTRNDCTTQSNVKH

With Control peptide (Table 5), the Fluorescence turned out to be 493 in test [1]; 1100 in test [2]; 7 in test [3]; 20 in test [4]; 0 in test [5].
